Biological target: human CD8 on human T cells (human) (UniProt P01732)
Assay: cell-based or functional assay

Chain of human CD8 on human T cells (human) (P01732 22-235): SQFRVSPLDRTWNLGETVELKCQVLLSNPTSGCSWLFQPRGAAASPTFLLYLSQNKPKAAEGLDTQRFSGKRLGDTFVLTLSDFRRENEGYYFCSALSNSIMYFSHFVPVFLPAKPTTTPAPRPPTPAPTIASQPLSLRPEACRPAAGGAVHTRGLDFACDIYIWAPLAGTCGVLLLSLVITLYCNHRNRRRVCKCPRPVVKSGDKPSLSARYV

| Substance | tumor cell survival, SK-MEL-5 with MART-1 T cells [fold] |
| --- | --- |
| 51.1 (antibody) | 2 |
| SK1 (antibody) | 2 |
